Data on nine molecules can be found in article PMC5457524, “An engineered high affinity Fbs1 carbohydrate binding protein for selective capture of N-glycans and N-glycopeptides” (Nature Communications, 2017).

Changes are numbered by the printed parent chain. Names and notes keep the numbering of the source. No end group written: not given here. TMR = tetramethylrhodamine

To fix the notation:
T1: SNAP-Fbs1 fusion protein (wild-type human Fbs1 sugar-binding domain, residues 92-296) (human, UniProt Q9UK22 92-296)
T1 construct: Immobilised covalently through the SNAP tag on benzylguanine (BG) agarose beads in the bead assays; also called wt Fbs1; Fbs1 beads; source: NEB Express E. coli, purified (for Fbs1 beads and ITC); E. coli cell lysate (fetuin or RNase B bead pulldown); not shown: SNAP tag, N-terminal, kept
T1 sequence (looked up): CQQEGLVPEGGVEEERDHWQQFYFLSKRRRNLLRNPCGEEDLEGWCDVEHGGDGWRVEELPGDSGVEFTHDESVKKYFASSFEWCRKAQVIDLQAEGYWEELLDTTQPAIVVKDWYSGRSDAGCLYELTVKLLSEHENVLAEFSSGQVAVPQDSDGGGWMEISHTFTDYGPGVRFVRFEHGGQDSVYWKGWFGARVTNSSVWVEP

T2: fetuin (UniProt P12763 19-359, sialylated complex N-linked glycans)
T2 construct: fetuin; Denatured by boiling in Rapid PNGase F buffer, or on Affi-Gel 15 beads with 6 M guanidine-HCl; also called sialylated fetuin; fetuin beads; source: bought: New England Biolabs; denatured before the assay
T2 sequence (looked up): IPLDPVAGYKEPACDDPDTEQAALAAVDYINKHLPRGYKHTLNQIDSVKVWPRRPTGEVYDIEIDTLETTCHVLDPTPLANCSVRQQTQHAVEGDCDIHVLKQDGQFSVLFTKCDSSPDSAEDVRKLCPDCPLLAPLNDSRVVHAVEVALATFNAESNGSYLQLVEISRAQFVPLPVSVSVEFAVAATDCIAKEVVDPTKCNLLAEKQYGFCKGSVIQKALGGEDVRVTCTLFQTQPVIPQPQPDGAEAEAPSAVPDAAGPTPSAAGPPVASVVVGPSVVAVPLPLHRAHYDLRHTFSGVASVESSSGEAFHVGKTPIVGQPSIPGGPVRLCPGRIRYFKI

B1: sialylglycopeptide (SGP) (peptide)
peptide: KVAN(bi‑antennary complex N‑glycan, terminal sialic acids)KT
notes: naturally occurring glycopeptide of six amino acids; source: bought: Fushimi Pharmaceutical Co., Ltd
B2: RNase B (natural protein, UniProt P61823 27-150, looked up)
chain: KETAAAKFERQHMDSSTSAASSSNYCNQMMKSRNLTKDRCKPVNTFVHESLADVQAVCSQKNVACKNGQTNCYQSYSTMSITDCRETGSSKYPNCAYKTTQANKHIIVACEGNPYVPVHFDASV
modifications: a single site modified by a variety of high-mannose N-glycans
notes: RNase B, the N-glycosylated form of pancreatic ribonuclease; Denatured by boiling (SDS/DTT or Rapid PNGase F buffer), or on Affi-Gel 10 beads with 6 M guanidine-HCl; source: bought: New England Biolabs; denatured before the assay
B3: SGP-TMR (SGP labelled with two TMR fluorophores on the lysines) (peptide)
peptide: K(TMR)VAN(bi‑antennary complex N‑glycan, terminal sialic acids)K(TMR)T
notes: peptide of SGP; also called glycopeptide 1
B4: SGP-TMR without sialic acids and galactose (peptide)
peptide: K(TMR)VANK(TMR)T
modifications: not fully specified (residue 4)
notes: peptide of SGP; also called glycopeptide 3; source: SGP-TMR trimmed with α2-3,6,8 Neuraminidase and β1-4 Galactosidase S
B5: SGP-TMR without sialic acids, galactose and GlcNAc (peptide)
peptide: K(TMR)VAN(N‑glycan pentasaccharide core)K(TMR)T
notes: peptide of SGP; also called glycopeptide 4; source: SGP-TMR trimmed with α2-3,6,8 Neuraminidase, β1-4 Galactosidase S and β-N-Acetylglucosaminidase S
B6: SNAP-Fbs1 GYR variant (S155G, F173Y, E174R) (designed binder)
chain: T1 sequence (looked up) with S64G, F82Y, E83R
notes: numbered on the full-length human protein; source: E. coli, purified (for beads and N-glyco-FASP); E. coli cell lysate (fetuin bead pulldown); not shown: SNAP tag, N-terminal, kept
B7: SNAP-Fbs1 PPRYR variant (combination of PPR and YR) (designed binder)
chain: T1 sequence (looked up) with D63P, S64P, G65R, F82Y, E83R
notes: numbered on the full-length human protein; source: E. coli, purified (for beads); E. coli cell lysate (fetuin bead pulldown); not shown: SNAP tag, N-terminal, kept
B8: SNAP-Fbs1 S155A mutant (domain or fragment, human, UniProt Q9UK22 92-296, looked up)
chain: T1 sequence (looked up) with S64A
notes: numbered on the full-length human protein; source: E. coli cell lysate; not shown: SNAP tag, N-terminal, kept
B9: SNAP-Fbs1 S155G mutant (domain or fragment, human, UniProt Q9UK22 92-296, looked up)
chain: T1 sequence (looked up) with S64G
notes: as for B8

Experiment [1] has as its target B6. The experiment is described as follows: affinity purification with mass spectrometry; wt Fbs1 or Fbs1 GYR enrichment from a tryptic digest of RNase B spiked with SGP and SGP-TMR; low salt (50 mM ammonium acetate, pH7.5); LC-MS, SGP-TMR by fluorescence. As to conditions: both partners purified.
Experiment [2] has as its target T1, SNAP-Fbs1 fusion protein (wild-type …). The experiment can be described thus: ITC; 270 μM SGP injected into 27 μM SNAP-Fbs1; 20 mM Tris.HCl pH 7.5, 1 mM EDTA, 2 M NaCl (high salt); single site binding model. As to conditions: both partners purified.
Experiment [3] has the same target. The experiment can be described thus: ITC; 270 μM SGP injected into 27 μM SNAP-Fbs1; 20 mM Tris.HCl pH 7.5, 1 mM EDTA, 50 mM NaCl (low salt); single site binding model. As to conditions: both partners purified.
In experiment [4] the target is B6. The experiment is described as follows: pull-down; wt, GYR or PPRYR SNAP-Fbs1 on BG beads; mixture of denatured fetuin and RNase B; low salt (50 mM ammonium acetate pH 7.5 named for Fig. 4a); 4 °C, 1 h; SDS-PAGE. To be noted: both partners purified.
For experiment [5], the target named is B6. The experiment is described as follows: pull-down; wt or GYR SNAP-Fbs1 on BG beads; TMR-labelled glycopeptides; 4 °C, 1 h; bound amount from the TMR fluorescence left in the supernatant, given as recovery percentage; low salt (50 mM NaCl or 50 mM ammonium acetate pH 7.5) or high salt (2 M NaCl). To be noted: both partners purified.
Experiment [6] addresses T1, SNAP-Fbs1 fusion protein (wild-type …). The description is as above. To be noted: both partners purified.
Another experiment has as its target T2, fetuin. The experiment can be described thus: pull-down; fetuin (Affi-Gel 15) or RNase B (Affi-Gel 10) beads, denatured with 6 M guanidine-HCl; E. coli cell lysate with wt or mutant SNAP-Fbs1; 20 mM Tris.HCl pH 7.5, 1 mM EDTA, 50 mM NaCl (low salt) or 2 M NaCl (high salt), 30% Protein-Free Blocking buffer; 4 °C, 1 h; SDS-PAGE, ImageJ. As to conditions: one partner purified.

Broadly, the Kd is a measure of binding affinity in units of concentration. On to B1, for which the binding result in experiment [1] was “binds”. The Kd in experiment [2] came to 1400 ± 40 nM; in experiment [3], 3000 nM.

On to B2, for which the binding result in experiment [4] was “binds”.

Turning to B3, the binding result in experiment [5] is “binds”.

For B4, the binding result in experiment [5] was “binds”.

B5: in experiment [6], the “fold improvement in recovery (against untrimmed SGP-TMR)” value was not below 3 fold. Moreover, the binding result in experiment [5] is “binds”.

On to B6, for which, in the experiment with fetuin, the “fold change of the pulled-down amount against wt Fbs1” value (shortened to “fold change of the pulled-down amount”) is not below 3.5 fold.

With B7, the “fold change of the pulled-down amount” value in the experiment with fetuin is not below 3.5 fold.

Take B8: the “fold change of the pulled-down amount” value in the experiment with fetuin stood at 1.5 fold.

For the molecule B9, the “fold change of the pulled-down amount” value in the experiment with fetuin worked out at 2 fold.
